B1: TNT50a: "an anti-mouse CD22 antibody (SEQ ID NO: 124 and SEQ ID NO: 125) conjugated to mouse CpG 4523 (SEQ ID NO: 121) of DAR1 configuration" (conjugate, listed as Mus musculus)
chain 1: QVQLQQPGAEIVRPGTSVKLSCKASGYTFTDYWMNWVKQRPGQGLEWFGAIDPSDSYTRYNQEFKGKATLTVDTSSTTAYMQLSSLTSEDSAVYFCARSDYTYSFYFDYWGLGTTLTVSS
chain 2: DIVMTQAAFSNPVTLGTSASISCRSSKSLLHSNGITYLYWYLQKPGQSPQLLIYQMSNLASGVPDRFSSSGSGTDFTLRISRVEAEDVGVYYCAQNLELPWTFGGGTKLEIK
DNA: tucgtcgtgacgtt
modifications: antibody-CpG conjugate, DAR1
B2: CD22 Ab-CpG conjugate: "anti-mouse CD22 antibody (SEQ ID NO: 124 and SEQ ID NO: 125) conjugated to mouse CpG 4523 (SEQ ID NO: 121) with a DAR1 configuration" (conjugate, listed as Mus musculus)
chain 1: B1 chain 1
chain 2: B1 chain 2
DNA: tucgtcgtgacgtt
modifications: antibody-CpG conjugate, DAR1

Columns and labels:
[1] = test system: CT26 mouse colon carcinoma cells; experiment: CT26 model, anti-PD1 non-responders; assay type: in vivo, BALB/c mice; conditions: conjugate intravenously 2 doses every 3 days at 10 mg/kg; anti-PD1 intraperitoneal 10 mg/kg
Method: 100 uL of suspended cells were subcutaneously implanted into the right flank of 6 week old female BALB/c mice (Charles River).

[2] = test system: EMT6 mouse mammary carcinoma cells; experiment: EMT6 breast cancer model (checkpoint inhibitor refractory), intraperitoneal dosing; assay type: in vivo, BALB/c mice; conditions: intraperitoneally 2 doses every 3, 5 or 7 days at 10 mg/kg
Method: EMT6 mouse mammary carcinoma cells (ATCC) were cultured in Complete RPMI 1640 (RPMI1640+10% FBS (Gibco)) at 37° C. and 5% CO2. Cells were detached with Trypsin 0.25% (Gibco) and washed twice with RPMI 1640 (Gibco). Cells were resuspended at 20E6/mL in RPMI 1640 and kept on ice until use. 100 uL of suspended cells were subcutaneously implanted into the right flank of 6 week old female BALB/c mice (Charles River). Tumor size was measured and recorded twice a week with calipers starting 3 days post implantation until duration of the study, approximately 35 days later. Tumor volume was calculated using the following formula: (length×width×width)/2. Once tumors reached on average 75 mm^3, approximately 3 days post implantation, mice were randomized by tumor size and treatments were initiated. […] TNT50a conjugates were administered intraperitoneally 2 doses every 3, 5 or 7 days at 10 mg/kg.

[3] = test system: EMT6 mouse mammary carcinoma cells; experiment: EMT6 breast cancer model, intratumoral administration; assay type: in vivo, BALB/c mice; conditions: intratumorally 2 doses every 3 days at 24 uM
Method: 100 uL of suspended cells were subcutaneously implanted into the right flank of 6 week old female BALB/c mice (Charles River). Tumor size was measured and recorded twice a week with calipers starting 7 days post implantation until duration of the study, approximately 25 days later. Tumor volume was calculated using the following formula: (length×width×width)/2. Once tumors reached on average 180 mm^3, approximately 7 days post implantation, mice were randomized by tumor size and treatments were initiated.

[4] = test system: spleens and tumors; experiment: Immunophenotyping of spleen and tumor in syngeneic models (A20, CT26, EMT6); assay type: in vivo, BALB/c mice; conditions: 1 or 2 doses intraperitoneally every 3 days at 10 mg/kg
Method: Immunophenotyping of multiple syngeneic models administered with TNT50a were conducted. […] A20 B cell lymphoma, CT26 colon carcinoma, EMT6 mouse mammary carcinoma cells (ATCC) were cultured in Complete RPMI 1640 (RPMI1640+10% FBS (Gibco)) at 37° C. and 5% CO2. Cells were detached with Trypsin 0.25% (Gibco) and washed twice with RPMI 1640 (Gibco). Cells were resuspended at 20E6/mL in RPMI 1640 and kept on ice until use. 100 uL of suspended cells were subcutaneously implanted into the right flank of 6 week old female BALB/c mice (Charles River). Tumor size was measured with calipers. Tumor volume was calculated using the following formula: (length×width×width)/2. Once tumors reached on average 200-300 mm^3, mice were randomized by tumor size and treatments were initiated. The conjugates were administered 1 or 2 doses intraperitoneally every 3 days at 10 mg/kg.
Spleens and tumors were harvested either two or three days post-last injection for immunophenotyping. Spleens were processed into single-cell suspension in ice-cold PBS, lysed with ACK lysis buffer (Gibco), washed twice and re-suspended in PBS supplemented with 2% FBS. Tumor-derived single-cell suspensions were prepared using a cocktail of Collagenase A (Roche), Collagenase D (Roche) and DNAse (Roche) for 45 min at 37° C. […]

[5] = test system: 4T1 cells; experiment: 4T1 lung metastatic burden; assay type: in vivo, BALB/C mice; conditions: 10 mg/kg, 3 doses every 3 days; compared to the control

Row | Molecule | tumor volume in anti-PD1 non responders [1] | anti-tumor efficacy [2] | anti-tumor potency [3] | immune cell changes in spleen and tumor [4] | number of metastatic plaques [5]
1 | B1 | tumor volume was reduced | showed anti-tumor efficacy in all three dosing regimens | – | – | –
2 | B2 | – | – | showed anti-tumor potency | promotes B cell differentiation, decrease in Bregs, increase in T cell effector function and modulation of suppressive myeloid cells | significantly reduced

From patent US11920136B2, “Transglutaminase-mediated conjugation” (Tallac Therapeutics, Inc., priority 2020, dated 2024)
